Values of other authors in publication PMC6126569.
Where “and” joins values, the source holds several entries; their conditions need not be identical. Equal values may be shown once.

Molecular target: Bac7 (Bos taurus) (UniProt P19661)
Experiment: SRCD

Chain of Bac7 (Bos taurus) (P19661 131-189): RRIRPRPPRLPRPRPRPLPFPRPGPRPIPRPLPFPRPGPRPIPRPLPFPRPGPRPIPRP
Chain of SbmA (P0AFY6 whole entry): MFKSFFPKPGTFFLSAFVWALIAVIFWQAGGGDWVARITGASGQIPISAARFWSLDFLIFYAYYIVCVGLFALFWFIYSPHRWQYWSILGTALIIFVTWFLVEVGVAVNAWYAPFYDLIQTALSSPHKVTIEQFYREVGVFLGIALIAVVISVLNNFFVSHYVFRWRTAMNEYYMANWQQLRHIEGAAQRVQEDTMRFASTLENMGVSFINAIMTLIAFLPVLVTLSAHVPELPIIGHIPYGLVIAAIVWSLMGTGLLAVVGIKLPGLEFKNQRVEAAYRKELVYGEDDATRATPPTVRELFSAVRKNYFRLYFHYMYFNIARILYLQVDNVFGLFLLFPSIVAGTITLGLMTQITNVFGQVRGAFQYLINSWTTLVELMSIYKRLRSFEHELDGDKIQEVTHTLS

Q: For SbmA (from UniProt P0AFY6), which Kd is on record?
A: The Kd was 260 nM and 280 nM.
